Results on five molecules are retold here after patent publication US20230235013A1 (MABSOLVE, published 2023).

Test [1] deals with T1, Histidine-tagged recombinant human FcγRI (CD64) (human, UniProt P12314 16-288).
T1 construct: bought; also called Sino Biological Cat. No. 12056-H08H
Description: SPR, captured His-receptor.

Test [2] deals with T2, mouse FcγRI (Sino Biological Cat. No. 50086-M08H) (mouse, UniProt P26151 25-297).
T2 construct: bought
T2 sequence (looked up): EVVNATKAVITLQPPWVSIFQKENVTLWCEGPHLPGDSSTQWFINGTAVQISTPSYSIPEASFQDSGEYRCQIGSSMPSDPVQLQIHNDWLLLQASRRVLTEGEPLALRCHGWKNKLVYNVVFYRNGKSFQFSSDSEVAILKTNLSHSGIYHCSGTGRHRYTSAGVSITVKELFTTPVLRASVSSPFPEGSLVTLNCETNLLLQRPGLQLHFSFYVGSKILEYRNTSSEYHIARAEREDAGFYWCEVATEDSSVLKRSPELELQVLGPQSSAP
Description: SPR, captured His-receptor. (In general: SPR reads the build-up and loss of mass on a sensor chip optically.)

The target of test [3] is T3, human FcγRIIA (R131, Sino Biological Cat. No. 10374-H08H) (human, UniProt P12318 34-218).
T3 construct: bought; also called human FcγRIIa R131 allele; FcγRII allele R131
T3 sequence (looked up): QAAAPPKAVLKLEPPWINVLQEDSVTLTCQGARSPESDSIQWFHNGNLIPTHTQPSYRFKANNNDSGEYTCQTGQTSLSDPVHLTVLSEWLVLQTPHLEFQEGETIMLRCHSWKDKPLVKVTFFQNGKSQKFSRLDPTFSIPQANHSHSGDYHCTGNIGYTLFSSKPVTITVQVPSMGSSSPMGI
Description: SPR, captured His-receptor.

Test [4] concerns the target T4, human FcγRIIB (Sino Biological Cat. No. 10259-H08H) (human, UniProt P31994 43-217).
T4 construct: bought
T4 sequence (looked up): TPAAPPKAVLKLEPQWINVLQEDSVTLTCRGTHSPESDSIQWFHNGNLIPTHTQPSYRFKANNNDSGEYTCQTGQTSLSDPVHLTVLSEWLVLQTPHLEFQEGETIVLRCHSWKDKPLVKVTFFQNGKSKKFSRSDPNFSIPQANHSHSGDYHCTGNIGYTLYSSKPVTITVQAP
Description: SPR, captured His-receptor.

The target of test [5] is T5, human FcγRIIIA (F158, Sino Biological Cat. No. 10389-H08H) (human, UniProt P08637 17-208).
T5 construct: bought; also called human FcγRIIIa F158 allele
T5 sequence (P08637 17-208 limits assumed): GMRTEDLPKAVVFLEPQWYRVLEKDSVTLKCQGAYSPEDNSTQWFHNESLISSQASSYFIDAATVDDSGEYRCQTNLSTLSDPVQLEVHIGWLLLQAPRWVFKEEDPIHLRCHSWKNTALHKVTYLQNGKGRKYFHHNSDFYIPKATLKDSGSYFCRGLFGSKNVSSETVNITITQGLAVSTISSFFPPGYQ
Briefly: SPR, captured His-receptor.

Test [6] deals with human FcγRIIIa V158 allele (human, UniProt P08637 17-208, limits assumed). Description: SPR, captured His-receptor.
Chain of human FcγRIIIa V158 allele (P08637 17-208 F176V limits assumed): as the sequence (P08637 17-208 limits assumed) above, with F160V counted along it
The target in test [7] is T6, human FcγRIIIB (NA2 allotype, Sino Biological Cat. No. 11046-H08H) (human, UniProt O75015 17-200).
T6 construct: bought; also called human FcγRIIIb NA2 allele
Description: SPR, captured His-receptor.

The target of test [8] is T7, Sheep Fc-CD52 fusion protein (Absolute Antibody Cat. No. PR00205) (human, UniProt P31358 25-36).
T7 construct: bought; also called CD52 antigen; human CD52; not shown: sheep Fc
Briefly: ELISA, antigen coated, antibody 5 µg/mL.

For test [9], the target named is T8, Histidine-tagged recombinant human FcγRI (CD64) (human, UniProt P12314 16-288, limits assumed).
T8 construct: bought
Description: SPR, His-FcγRI captured; Expt 1 Rep 1.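 Further: antibody analyte injected at 100 µg/mL for 1 min.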

The target of test [10] is T8, Histidine-tagged recombinant human …. Description: SPR, His-FcγRI captured; Expt 1 Rep 2.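 Further: antibody analyte injected at 100 µg/mL for 1 min.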
Test [11] has the same target. Briefly: SPR, His-FcγRI captured; Expt 2 Rep 2.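 Further: antibody analyte injected at 100 µg/mL for 1 min.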
The next test addresses T9, cynomolgus monkey FcRn (cynomolgus monkey, UniProt Q8SPV9 24-297; Q8SPW0 21-119).
T9 construct: bought; also called cynomolgus FcRn
Briefly: SPR pH 6.0, FcRn captured.

Test [12] concerns the target T10, human FcRn (human, UniProt P55899 24-297; P61769 21-119).
T10 construct: bought
Description: SPR pH 6.0, FcRn captured; Expt 1.

Test [13] addresses T10, human FcRn. Description: SPR pH 6.0, FcRn captured; Expt 2.
Test [14] has as its target T8, Histidine-tagged recombinant human …. Briefly: SPR, receptor captured on anti-His chip.
Another test deals with T11, mouse FcγRI (mouse, UniProt P26151 25-297).
T11 construct: bought; captured on anti-histidine chip
T11 sequence (looked up): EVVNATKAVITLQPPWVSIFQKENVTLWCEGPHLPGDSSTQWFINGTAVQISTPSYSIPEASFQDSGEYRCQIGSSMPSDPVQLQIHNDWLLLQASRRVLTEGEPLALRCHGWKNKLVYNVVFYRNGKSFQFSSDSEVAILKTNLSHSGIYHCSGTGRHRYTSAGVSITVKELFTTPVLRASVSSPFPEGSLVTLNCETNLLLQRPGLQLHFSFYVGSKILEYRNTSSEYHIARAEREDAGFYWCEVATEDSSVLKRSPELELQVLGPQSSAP
Description: SPR, receptor captured on anti-His chip.

The next test addresses T12, rat FcγRI (rat, UniProt A0A0B4J2J0 16-285).
T12 construct: bought; captured on anti-histidine chip
T12 sequence: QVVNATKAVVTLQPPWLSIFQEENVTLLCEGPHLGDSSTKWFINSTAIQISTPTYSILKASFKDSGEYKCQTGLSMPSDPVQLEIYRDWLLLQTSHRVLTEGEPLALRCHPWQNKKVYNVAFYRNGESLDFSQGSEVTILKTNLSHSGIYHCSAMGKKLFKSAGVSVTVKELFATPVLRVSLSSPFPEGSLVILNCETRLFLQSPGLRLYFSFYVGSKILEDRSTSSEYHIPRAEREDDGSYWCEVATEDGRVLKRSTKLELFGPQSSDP
Description: SPR, receptor captured on anti-His chip.

The target in the next test is T13, rabbit FcγRI (rabbit).
T13 construct: bought; captured on anti-histidine chip
Briefly: SPR, receptor captured on anti-His chip.

The target in another test is T14, human FcγRIIA (R131) (human, UniProt P12318 34-218, limits assumed).
T14 construct: bought; R131 allele
T14 sequence (looked up): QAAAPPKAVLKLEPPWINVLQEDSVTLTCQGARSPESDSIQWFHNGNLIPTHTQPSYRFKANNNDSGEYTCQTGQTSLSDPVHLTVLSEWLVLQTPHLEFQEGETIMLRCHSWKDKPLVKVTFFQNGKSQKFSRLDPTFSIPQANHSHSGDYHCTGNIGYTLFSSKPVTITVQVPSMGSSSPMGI
Description: SPR, receptor captured on anti-His chip.

The target in another test is T15, human FcγRIIIA (F158) (human, UniProt P08637 17-208).
T15 construct: bought; F158 allele
T15 sequence (P08637 17-208 limits assumed): as the sequence (P08637 17-208 limits assumed) above
Briefly: SPR, receptor captured on anti-His chip.

T10 sequence (P55899 24-297 limits assumed, chain 1 of 2): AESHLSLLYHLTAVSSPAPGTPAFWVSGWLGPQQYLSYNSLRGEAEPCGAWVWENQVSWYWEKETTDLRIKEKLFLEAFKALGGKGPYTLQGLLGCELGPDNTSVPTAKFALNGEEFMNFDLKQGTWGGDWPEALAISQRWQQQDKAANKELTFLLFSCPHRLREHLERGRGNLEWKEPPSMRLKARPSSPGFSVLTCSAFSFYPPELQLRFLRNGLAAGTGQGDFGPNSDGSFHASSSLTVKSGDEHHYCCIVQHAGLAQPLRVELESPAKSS
T10 sequence (P61769 21-119 limits assumed, chain 2 of 2): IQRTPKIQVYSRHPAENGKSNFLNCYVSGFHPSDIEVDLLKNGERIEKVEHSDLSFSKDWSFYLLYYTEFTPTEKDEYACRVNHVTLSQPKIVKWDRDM

B1: anti-CD52 human IgG1 L234T/L235Q/G236R (antibody)
heavy: QVQLQESGPGLVRPSQTLSLTCTVSGFTFTDFYMNWVRQPPGRGLEWIGFIRDKAKGYTTEYNPSVKGRVTMLVDTSKNQFSLRLSSVTAADTAVYYCAREGHTAAPFDYWGQGSLVTVSSASTKGPSVFPLAPSSKSTSGGTAALGCLVKDYFPEPVTVSWNSGALTSGVHTFPAVLQSSGLYSLSSVVTVPSSSLGTQTYICNVNHKPSNTKVDKKVEPKSCDKTHTCPPCPAPETQRGPSVFLFPPKPKDTLMISRTPEVTCVVVDVSHEDPEVKFNWYVDGVEVHNAKTKPREEQYNSTYRVVSVLTVLHQDWLNGKEYKCKVSNKALPAPIEKTISKAKGQPREPQVYTLPPSRDELTKNQVSLTCLVKGFYPSDIAVEWESNGQPENNYKTTPPVLDSDGSFFLYSKLTVDKSRWQQGNVFSCSVMHEALHNHYTQKSLSLSPGK
light: not shown
notes: also called 4-60; copies: 2 + 2
As for B1, the binding result in test [1], in test [2], in test [3], in [4], in test [5] and in test [6] was “no binding (tested: 100 µg/mL)” in each case. The binding result in test [7] was “no binding (tested: 100 µg/mL)”. Further, the “Mean Absorbance” value in test [8] came out at 1.35 absorbance.

B2: anti-CD52 human IgG1 L234T/L235T/G236R (antibody)
heavy: QVQLQESGPGLVRPSQTLSLTCTVSGFTFTDFYMNWVRQPPGRGLEWIGFIRDKAKGYTTEYNPSVKGRVTMLVDTSKNQFSLRLSSVTAADTAVYYCAREGHTAAPFDYWGQGSLVTVSSASTKGPSVFPLAPSSKSTSGGTAALGCLVKDYFPEPVTVSWNSGALTSGVHTFPAVLQSSGLYSLSSVVTVPSSSLGTQTYICNVNHKPSNTKVDKKVEPKSCDKTHTCPPCPAPETTRGPSVFLFPPKPKDTLMISRTPEVTCVVVDVSHEDPEVKFNWYVDGVEVHNAKTKPREEQYNSTYRVVSVLTVLHQDWLNGKEYKCKVSNKALPAPIEKTISKAKGQPREPQVYTLPPSRDELTKNQVSLTCLVKGFYPSDIAVEWESNGQPENNYKTTPPVLDSDGSFFLYSKLTVDKSRWQQGNVFSCSVMHEALHNHYTQKSLSLSPGK
light: not shown
notes: also called 4-63; copies: 2 + 2
Regarding B2, the binding result in [1], in [2], in test [3], in test [4], in [5] and in test [6] was “no binding (tested: 100 µg/mL)” throughout. Besides, the binding result in test [7] is on record as “no binding (tested: 100 µg/mL)”. Further, the “Mean Absorbance” value in test [8] was found to be 1.48 absorbance.

B3: anti-CD20 human IgG1 L234S/L235T (antibody)
heavy: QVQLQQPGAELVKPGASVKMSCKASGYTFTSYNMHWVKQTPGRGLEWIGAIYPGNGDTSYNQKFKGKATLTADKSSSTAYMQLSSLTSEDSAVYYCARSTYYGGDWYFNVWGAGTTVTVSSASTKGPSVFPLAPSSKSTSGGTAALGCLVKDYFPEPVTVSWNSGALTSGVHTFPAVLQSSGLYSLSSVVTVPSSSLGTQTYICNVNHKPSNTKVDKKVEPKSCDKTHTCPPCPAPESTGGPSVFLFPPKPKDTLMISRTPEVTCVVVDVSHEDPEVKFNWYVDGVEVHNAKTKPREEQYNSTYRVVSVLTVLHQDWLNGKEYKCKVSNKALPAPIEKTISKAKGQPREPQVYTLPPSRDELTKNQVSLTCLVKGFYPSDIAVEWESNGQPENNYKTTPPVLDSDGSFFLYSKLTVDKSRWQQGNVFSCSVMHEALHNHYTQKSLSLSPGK
light: QIVLSQSPAILSASPGEKVTMTCRASSSVSYIHWFQQKPGSSPKPWIYATSNLASGVPVRFSGSGSGTSYSLTISRVEAEDAATYYCQQWTSNPPTFGGGTKLEIKRTVAAPSVFIFPPSDEQLKSGTASVVCLLNNFYPREAKVQWKVDNALQSGNSQESVTEQDSKDSTYSLSSTLTLSKADYEKHKVYACEVTHQGLSSPVTKSFNRGEC
notes: also called 2-87
As for B3, the “Corrected response (RU)” value in test [9] was found to be 62.9 RU; in [10], 54.1 RU; in test [11], 62.4 RU.

B4: anti-CD20 human IgG1 N297Q (aglycosyl) (antibody)
heavy: not shown
light: QIVLSQSPAILSASPGEKVTMTCRASSSVSYIHWFQQKPGSSPKPWIYATSNLASGVPVRFSGSGSGTSYSLTISRVEAEDAATYYCQQWTSNPPTFGGGTKLEIKRTVAAPSVFIFPPSDEQLKSGTASVVCLLNNFYPREAKVQWKVDNALQSGNSQESVTEQDSKDSTYSLSSTLTLSKADYEKHKVYACEVTHQGLSSPVTKSFNRGEC
notes: also called 2-67
B4: the “Corrected response (RU)” value was 1040 RU in the test with cynomolgus monkey FcRn; 426 RU with human FcRn [12]; 430 RU in the test with human FcRn [13]; 578 RU in [14]; 49.3 RU with mouse FcγRI; 1470 RU with rat FcγRI. Besides, the “Corrected response (RU)” value is 410 RU with rabbit FcγRI, 9.4 RU in the test with human FcγRIIA (R131) and -1.4 RU in the test with human FcγRIIIA (F158).

B5: anti-CD20 human IgG1 L235T/G236R (antibody)
heavy: not shown
light: QIVLSQSPAILSASPGEKVTMTCRASSSVSYIHWFQQKPGSSPKPWIYATSNLASGVPVRFSGSGSGTSYSLTISRVEAEDAATYYCQQWTSNPPTFGGGTKLEIKRTVAAPSVFIFPPSDEQLKSGTASVVCLLNNFYPREAKVQWKVDNALQSGNSQESVTEQDSKDSTYSLSSTLTLSKADYEKHKVYACEVTHQGLSSPVTKSFNRGEC
notes: also called 2-86
Take B5: the entries for the “Corrected response (RU)” value in test [9], in [10] and in test [11] were -9.4 RU, -10.6 RU and 0 RU, respectively.
